From PMC6338969, “Aptamer Conformation Switching-Induced Two-Stage Amplification for Fluorescent Detection of Proteins”

B1: PDGF-BB DNA aptamer (switch) (structured_DNA)
DNA: TGCACCTCAGCAGCAGGCTACGGCACGTAGAGCATCACCATGATCCTGCATCCGAGCAGGAACG
B2: Control DNA aptamer (ssDNA)
DNA: TGCACCTCAGCATTTCCGTGGTAGGGCAGGTTGGGGTGATTTCTATTCAATCCGAGCAGGAACG

Experiments:
[1] = target: carcino-embryonic antigen (CEA) (UniProt P06731 35-685); assay: molecular beacon fluorescence with amplification; 0.1 mg/mL CEA; Aptamer + protein 15 min at 37 °C, then NEB buffer (pH 7.9) with Klenow exo- buffer, 37 °C, 2 h; 1 uM aptamer, 1 uM beacon, 2.5 uM primer, 2 mM dNTPs, Klenow exo- and Nt.BbvCI 1 U/uL each; salt not stated; conditions: protein: commercial; Y-shaped complex with target
Sequence of carcino-embryonic antigen (CEA) (P06731 35-685): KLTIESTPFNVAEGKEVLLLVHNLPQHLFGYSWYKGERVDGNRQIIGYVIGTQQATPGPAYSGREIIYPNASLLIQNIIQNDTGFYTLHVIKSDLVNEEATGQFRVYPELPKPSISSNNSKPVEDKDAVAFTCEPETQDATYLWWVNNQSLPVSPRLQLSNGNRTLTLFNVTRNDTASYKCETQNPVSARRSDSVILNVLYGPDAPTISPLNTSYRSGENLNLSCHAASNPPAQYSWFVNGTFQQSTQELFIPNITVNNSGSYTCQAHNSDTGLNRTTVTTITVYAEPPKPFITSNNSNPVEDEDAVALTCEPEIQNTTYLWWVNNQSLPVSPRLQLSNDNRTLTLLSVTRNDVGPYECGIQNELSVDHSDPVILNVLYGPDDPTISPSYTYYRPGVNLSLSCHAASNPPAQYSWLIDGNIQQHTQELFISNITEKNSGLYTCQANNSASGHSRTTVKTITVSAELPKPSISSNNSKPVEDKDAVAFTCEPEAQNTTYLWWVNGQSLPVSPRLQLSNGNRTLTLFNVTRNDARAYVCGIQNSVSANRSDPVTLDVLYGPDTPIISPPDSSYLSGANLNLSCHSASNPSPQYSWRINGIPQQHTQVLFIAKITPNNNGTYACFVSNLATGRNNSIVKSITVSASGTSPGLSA

[2] = target: prostate-specific antigen (PSA) (UniProt P07288 25-261); assay: molecular beacon fluorescence with amplification; 0.1 mg/mL PSA; Aptamer + protein 15 min at 37 °C, then NEB buffer (pH 7.9) with Klenow exo- buffer, 37 °C, 2 h; 1 uM aptamer, 1 uM beacon, 2.5 uM primer, 2 mM dNTPs, Klenow exo- and Nt.BbvCI 1 U/uL each; salt not stated; conditions: protein: commercial; Y-shaped complex with target
Sequence of prostate-specific antigen (PSA) (P07288 25-261): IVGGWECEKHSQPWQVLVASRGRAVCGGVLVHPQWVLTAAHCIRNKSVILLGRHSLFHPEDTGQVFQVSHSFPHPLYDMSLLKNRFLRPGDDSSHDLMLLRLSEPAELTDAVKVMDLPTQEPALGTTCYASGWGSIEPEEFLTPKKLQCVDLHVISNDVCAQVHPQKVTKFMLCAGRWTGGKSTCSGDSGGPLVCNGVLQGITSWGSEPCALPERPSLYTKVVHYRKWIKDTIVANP

[3] = target: PDGF-BB (UniProt P01127 82-190); assay: molecular beacon fluorescence with amplification; 1.0 ug/mL PDGF-BB; Aptamer + protein 15 min at 37 °C, then NEB buffer (pH 7.9) with Klenow exo- buffer, 37 °C, 2 h; 1 uM aptamer, 1 uM beacon, 2.5 uM primer, 2 mM dNTPs, Klenow exo- and Nt.BbvCI 1 U/uL each; salt not stated; conditions: protein: commercial; chain copies: 2
Sequence of PDGF-BB (P01127 82-190): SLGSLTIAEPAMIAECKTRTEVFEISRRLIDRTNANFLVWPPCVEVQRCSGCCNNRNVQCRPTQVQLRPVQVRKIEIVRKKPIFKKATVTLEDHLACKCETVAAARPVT

Binder	binding result [1]	binding result [2]	binding result [3]
B1	no binding	no binding	
B2			no binding
